Bridge positions count the residues as written; N and C are the ends. Square brackets hold non-standard residues; d marks the D form. Peptide text beside a SMILES is read from it. R8 = C=CCCCCCC[C@@](C)(N)C(=O)O; R5 = C=CCCC[C@@](C)(N)C(=O)O; S5 = C=CCCC[C@](C)(N)C(=O)O
How the values were obtained:
[1] = circular dichroism; details: 10 mM phosphate; pH 7.5; 25 °C; 50 uM
[2] = test system: rHRSV-mCherry in HEp-2 cells; assay: rHRSV-mCherry inhibition assay; assay type: cell-based, human respiratory syncytial virus; details: Table 3 (Ala scan); HEp-2 cells, rHRSV-mCherry MOI 0.2, 2-fold serial dilutions (11 dilutions), duplicate; ± SD of fit
Procedure: To measure the inhibitory activity of the peptide, the mCherry red fluorescence was quantified 48 h postinfection (p.i.).
Viral replication was quantified by measuring the mCherry fluorescence at 48 h p.i. and normalized based on the fluorescence of infected and untreated cells. (B) Cytotoxicity assay. HEp-2 cells were incubated in the presence of serial dilutions of peptides, and cell survival was quantified using the CellTiter-Glo Luminescent cell viability assay 24 h after the addition of the peptides. The signal was normalized based on the luminescence obtained for untreated cells. Error bars are standard deviations from duplicates.
HEp-2 cells were seeded at 5 × 10^4 cells per well in a 96-well plate the day before the infection. Peptides were 2-fold serially diluted in dimethyl sulfoxide (DMSO) (11 dilutions) and then further diluted in EMEM without phenol red and preincubated for 15 to 20 min with rHRSV-mCherry ([24]) at a final dilution with an MOI of 0.2 ([24]). The cells were incubated with the virus-peptide mixtures for a period of 1.5 to 2 h. The medium was then replaced by EMEM without phenol red containing 2% fetal bovine serum and the same concentration of peptide as the one that was used during the infection step. Plates were incubated 48 h at 37°C, and the mCherry fluorescence was measured using a spectrofluorometer (Tecan infinite M200PRO) with excitation and emission wavelengths of 580 and 620 nm, respectively. Relative fluorescence was normalized by the fluorescence of nontreated infected cells. Noninfected HEp-2 cells were used as standards for fluorescence background levels. Each experiment was performed in duplicate and repeated at least twice. The resulting inhibition curves were fitted in Igor Pro as described above.

| Structure (SMILES) | helicity [1] | EC50 [2] |
| --- | --- | --- |
| CC[C@H](C)[C@H](NC(=O)[C@H](CCCCN)NC(=O)[C@H](CCC(=O)O)NC(C)=O)C(=O)N[C@@]1(C)CCCC=CCCC[C@@](C)(C(=O)N[C@@H](Cc2ccccc2)C(=O)N[C@H](C(=O)N[C@@]2(C)CCCC=CCCC[C@@](C)(C(=O)N[C@@H](CC(C)C)C(=O)N[C@@H](CC(C)C)C(=O)N[C@@H](Cc3c[nH]cn3)C(=O)N[C@@H](C)C(=O)N[C@H](C(N)=O)C(C)C)NC(=O)[C@H](CC(=O)O)NC(=O)[C@H](CO)NC(=O)[C@H](CCCCN)NC2=O)[C@@H](C)CC)NC(=O)[C@H](CC(C)C)NC(=O)[C@H](CO)NC(=O)[C@H](CCC(N)=O)NC1=O [Peptide N515A] (Ac-EKI[S5]QSL[S5]FI[S5]KSD[S5]LLHAV-NH2; staple 4-8, 11-15) | 59% | 2710 ± 2930 nM |
| CC[C@H](C)[C@@H]1NC(=O)[C@H](Cc2ccccc2)NC(=O)[C@@](C)(NC(=O)[C@H](CC(C)C)NC(=O)[C@H](CO)NC(=O)[C@]2(C)CCCC=CCCC[C@@](C)(NC(=O)[C@H](CCC(=O)O)NC(C)=O)C(=O)N[C@@H]([C@@H](C)CC)C(=O)N[C@@H](CC(N)=O)C(=O)N2)CCCC=CCCC[C@@](C)(C(=O)N[C@@H](CO)C(=O)N[C@@H](CC(=O)O)C(=O)N[C@@H](C)C(=O)N[C@@H](CC(C)C)C(=O)N[C@@H](CC(C)C)C(=O)N[C@@H](Cc2c[nH]cn2)C(=O)N[C@@H](CC(N)=O)C(=O)N[C@H](C(N)=O)C(C)C)NC(=O)[C@H](CCCNC(=N)N)NC1=O [Peptide E511A] (Ac-E[R5]IN[S5]SL[S5]FIR[S5]SDALLHNV-NH2; staple 2-5, 8-12) | 73% | 1000 ± 30 nM |
| CC[C@H](C)[C@H](NC(=O)[C@H](CCCCN)NC(=O)[C@H](CCC(=O)O)NC(C)=O)C(=O)N[C@@]1(C)CCCC=CCCC[C@@](C)(C(=O)N[C@@H](Cc2ccccc2)C(=O)N[C@H](C(=O)N[C@@]2(C)CCCC=CCCC[C@@](C)(C(=O)N[C@@H](CC(C)C)C(=O)N[C@@H](CC(C)C)C(=O)N[C@@H](Cc3c[nH]cn3)C(=O)N[C@@H](CC(N)=O)C(=O)N[C@H](C(N)=O)C(C)C)NC(=O)[C@H](CC(=O)O)NC(=O)[C@H](CO)NC(=O)[C@H](CCCCN)NC2=O)[C@@H](C)CC)NC(=O)[C@H](CC(C)C)NC(=O)[C@H](CO)NC(=O)[C@H](C)NC1=O [Peptide Q501A] (Ac-EKI[S5]ASL[S5]FI[S5]KSD[S5]LLHNV-NH2; staple 4-8, 11-15) | 12% | 280 ± 430 nM |
| CC[C@H](C)[C@H](NC(=O)[C@H](CCCCN)NC(=O)[C@H](CCC(=O)O)NC(C)=O)C(=O)N[C@@]1(C)CCCC=CCCC[C@@](C)(C(=O)N[C@@H](Cc2ccccc2)C(=O)N[C@H](C(=O)N[C@@]2(C)CCCC=CCCC[C@@](C)(C(=O)N[C@@H](CC(C)C)C(=O)N[C@@H](CC(C)C)C(=O)N[C@@H](Cc3c[nH]cn3)C(=O)N[C@@H](CC(N)=O)C(=O)N[C@H](C(N)=O)C(C)C)NC(=O)[C@H](C)NC(=O)[C@H](CO)NC(=O)[C@H](CCCCN)NC2=O)[C@@H](C)CC)NC(=O)[C@H](CC(C)C)NC(=O)[C@H](CO)NC(=O)[C@H](CCC(N)=O)NC1=O [Peptide D510A] (Ac-EKI[S5]QSL[S5]FI[S5]KSA[S5]LLHNV-NH2; staple 4-8, 11-15) | 44% | 1100 ± 80 nM |
| CC[C@H](C)[C@H](NC(=O)[C@H](CCCCN)NC(=O)[C@H](CCC(=O)O)NC(C)=O)C(=O)N[C@@]1(C)CCCC=CCCC[C@@](C)(C(=O)N[C@@H](Cc2ccccc2)C(=O)N[C@H](C(=O)N[C@@]2(C)CCCC=CCCC[C@@](C)(C(=O)N[C@@H](CC(C)C)C(=O)N[C@@H](CC(C)C)C(=O)N[C@@H](Cc3c[nH]cn3)C(=O)N[C@@H](CC(N)=O)C(=O)N[C@@H](C)C(N)=O)NC(=O)[C@H](CC(=O)O)NC(=O)[C@H](CO)NC(=O)[C@H](CCCCN)NC2=O)[C@@H](C)CC)NC(=O)[C@H](CC(C)C)NC(=O)[C@H](CO)NC(=O)[C@H](CCC(N)=O)NC1=O [Peptide V516A] (Ac-EKI[S5]QSL[S5]FI[S5]KSD[S5]LLHNA-NH2; staple 4-8, 11-15) | 49% | 600 ± 30 nM |
| CC[C@H](C)[C@H](NC(=O)[C@H](CCCCN)NC(=O)[C@H](CCC(=O)O)NC(C)=O)C(=O)N[C@@H](C)C(=O)N[C@@H](CCC(N)=O)C(=O)N[C@@H](CO)C(=O)N[C@@H](CC(C)C)C(=O)N[C@@]1(C)CCCC=CCCC[C@@](C)(C(=O)N[C@@H](CO)C(=O)N[C@@H](CC(=O)O)C(=O)N[C@@]2(C)CCCC=CCCC[C@@](C)(C(=O)N[C@H](C(N)=O)C(C)C)NC(=O)[C@H](Cc3c[nH]cn3)NC(=O)[C@H](CC(C)C)NC(=O)[C@H](CC(C)C)NC2=O)NC(=O)[C@H](CCCNC(=N)N)NC(=O)[C@H]([C@@H](C)CC)NC(=O)[C@H](Cc2ccccc2)NC1=O [Peptide N500A] (Ac-EKIAQSL[S5]FIR[S5]SD[S5]LLH[S5]V-NH2; staple 8-12, 15-19) | 60% | 20400 ± 2400 nM |
| CC[C@H](C)[C@H](NC(=O)[C@H](CCCCN)NC(=O)[C@H](CCC(=O)O)NC(C)=O)C(=O)N[C@@]1(C)CCCC=CCCC[C@@](C)(C(=O)N[C@@H](Cc2ccccc2)C(=O)N[C@H](C(=O)N[C@@]2(C)CCCC=CCCC[C@@](C)(C(=O)N[C@@H](CC(C)C)C(=O)N[C@@H](CC(C)C)C(=O)N[C@@H](Cc3c[nH]cn3)C(=O)N[C@@H](CC(N)=O)C(=O)N[C@H](C(N)=O)C(C)C)NC(=O)[C@H](CC(=O)O)NC(=O)[C@H](CO)NC(=O)[C@H](CCCCN)NC2=O)[C@@H](C)CC)NC(=O)[C@H](C)NC(=O)[C@H](CO)NC(=O)[C@H](CCC(N)=O)NC1=O [Peptide L503A] (Ac-EKI[S5]QSA[S5]FI[S5]KSD[S5]LLHNV-NH2; staple 4-8, 11-15) | 38% | 950 ± 530 nM |
| CC[C@H](C)[C@H](NC(=O)[C@H](Cc1ccccc1)NC(=O)[C@]1(C)CCCC=CCCC[C@](C)(NC(=O)[C@@H](NC(=O)[C@H](CCCCN)NC(=O)[C@H](CCC(=O)O)NC(C)=O)[C@@H](C)CC)C(=O)N[C@@H](CCC(N)=O)C(=O)N[C@@H](CO)C(=O)N[C@@H](CC(C)C)C(=O)N1)C(=O)N[C@@H](CCCNC(=N)N)C(=O)N[C@]1(C)CCCCCCC=CCCC[C@@](C)(C(=O)N[C@H](C(N)=O)C(C)C)NC(=O)[C@H](Cc2c[nH]cn2)NC(=O)[C@H](CC(C)C)NC(=O)[C@H](CC(C)C)NC(=O)[C@H](CCC(=O)O)NC(=O)[C@H](CC(=O)O)NC(=O)[C@H](CO)NC1=O [Peptide 4bf] (Ac-EKI[S5]QSL[S5]FIR[R8]SDELLH[S5]V-NH2; staple 4-8, 12-19) | 88.9% | – |
| CC[C@H](C)[C@H](NC(=O)[C@H](CCCCN)NC(=O)[C@H](CCC(=O)O)NC(C)=O)C(=O)N[C@@]1(C)CCCC=CCCC[C@@](C)(C(=O)N[C@@H](Cc2ccccc2)C(=O)N[C@H](C(=O)N[C@@]2(C)CCCC=CCCC[C@@](C)(C(=O)N[C@@H](CC(C)C)C(=O)N[C@@H](CC(C)C)C(=O)N[C@@H](C)C(=O)N[C@@H](CC(N)=O)C(=O)N[C@H](C(N)=O)C(C)C)NC(=O)[C@H](CC(=O)O)NC(=O)[C@H](CO)NC(=O)[C@H](CCCCN)NC2=O)[C@@H](C)CC)NC(=O)[C@H](CC(C)C)NC(=O)[C@H](CO)NC(=O)[C@H](CCC(N)=O)NC1=O [Peptide H514A] (Ac-EKI[S5]QSL[S5]FI[S5]KSD[S5]LLANV-NH2; staple 4-8, 11-15) | 55% | 520 ± 70 nM |
| CC[C@H](C)[C@H](NC(=O)[C@H](CCCCN)NC(=O)[C@H](CCC(=O)O)NC(C)=O)C(=O)N[C@@]1(C)CCCC=CCCC[C@@](C)(C(=O)N[C@@H](Cc2ccccc2)C(=O)N[C@H](C(=O)N[C@@]2(C)CCCC=CCCC[C@@](C)(C(=O)N[C@@H](CC(C)C)C(=O)N[C@@H](CC(C)C)C(=O)N[C@@H](Cc3c[nH]cn3)C(=O)N[C@@H](CC(N)=O)C(=O)N[C@H](C(N)=O)C(C)C)NC(=O)[C@H](CC(=O)O)NC(=O)[C@H](CO)NC(=O)[C@H](CCCCN)NC2=O)[C@@H](C)CC)NC(=O)[C@H](CC(C)C)NC(=O)[C@H](C)NC(=O)[C@H](CCC(N)=O)NC1=O [Peptide S502A] (Ac-EKI[S5]QAL[S5]FI[S5]KSD[S5]LLHNV-NH2; staple 4-8, 11-15) | 15% | 660 ± 260 nM |
| CC[C@H](C)[C@H](NC(=O)[C@H](CCCCN)NC(=O)[C@H](CCC(=O)O)NC(C)=O)C(=O)N[C@@]1(C)CCCC=CCCC[C@@](C)(C(=O)N[C@@H](Cc2ccccc2)C(=O)N[C@H](C(=O)N[C@@]2(C)CCCC=CCCC[C@@](C)(C(=O)N[C@@H](C)C(=O)N[C@@H](CC(C)C)C(=O)N[C@@H](Cc3c[nH]cn3)C(=O)N[C@@H](CC(N)=O)C(=O)N[C@H](C(N)=O)C(C)C)NC(=O)[C@H](CC(=O)O)NC(=O)[C@H](CO)NC(=O)[C@H](CCCCN)NC2=O)[C@@H](C)CC)NC(=O)[C@H](CC(C)C)NC(=O)[C@H](CO)NC(=O)[C@H](CCC(N)=O)NC1=O [Peptide L512A] (Ac-EKI[S5]QSL[S5]FI[S5]KSD[S5]ALHNV-NH2; staple 4-8, 11-15) | 45% | 880 ± 60 nM |

From publication PMC5365662, “A Short Double-Stapled Peptide Inhibits Respiratory Syncytial Virus Entry and Spreading” (Antimicrobial Agents and Chemotherapy, 2017)
